± gives the uncertainty stated by the source.
B1: Pre-mRNA-processing factor 40 homolog B, residues 274 to 332; numbered along this chain, Q6NWY9 (parent)
chain: SNREKAKQAFKELLRDKAVPSNASWEQAMKMVVTDPRYSALPKLSEKKQAFNAYKAQRE

Variants of: B1
Assay: abundance fitness (aPCA) (normalised: wild type 0, dead -1); higher = more abundant; growth selection in yeast, the domain comes from the species named
Settings: Homo sapiens

Row | Variant | abundance fitness
1 | F10M | -0.4 ± 0.11
2 | F10W | -0.869 ± 0.11
3 | E59F | -0.53 ± 0.23
4 | E59M | 0.167 ± 0.41
5 | E59G | -0.212 ± 0.074
6 | E59K | 0.055 ± 0.25
7 | E4Y | -0.457 ± 0.21
8 | E4A | -1.5 ± 0.17
9 | E4N | -0.074 ± 0.14
10 | E4V | -1.08 ± 0.093
11 | E4I | -0.025 ± 0.18
12 | E4C | -0.668 ± 0.17
13 | K7T | 0.042 ± 0.083
14 | K7Q | 0.062 ± 0.11
15 | K7C | -0.276 ± 0.12
16 | K7L | 0.065 ± 0.072
17 | K7I | -0.055 ± 0.17
18 | K7S | -0.005 ± 0.066
19 | K7P | -0.587 ± 0.087
20 | Q57R | -0.286 ± 0.05
21 | Q57T | -0.165 ± 0.074
22 | Q57N | -0.163 ± 0.092
23 | Q57P | -0.249 ± 0.071
24 | Q57E | 0.248 ± 0.078

Row | Variant | abundance fitness
25 | Q57A | 0.046 ± 0.056
26 | Q57I | -0.565 ± 0.1
27 | R3I | 0.06 ± 0.16
28 | R3W | -0.251 ± 0.11
29 | R3T | -0.062 ± 0.1
30 | R3M | 0.07 ± 0.1
31 | R3E | -0.047 ± 0.11
32 | N22T | -0.014 ± 0.082
33 | N22I | -1.04 ± 0.31
34 | N22L | -0.446 ± 0.089
35 | N22G | -0.217 ± 0.062
36 | N22R | -0.505 ± 0.06
37 | N22M | -0.623 ± 0.19
38 | N2A | -0.406 ± 0.12
39 | N2Y | -1.01 ± 0.34
40 | N2L | -0.581 ± 0.12
41 | N2G | -0.207 ± 0.069
42 | N2H | -0.83 ± 0.2
43 | S21H | -0.037 ± 0.47
44 | S21V | 0.089 ± 0.073
45 | S21G | -0.103 ± 0.074
46 | S21Y | 0.005 ± 0.12
47 | A18V | -0.367 ± 0.065
48 | A18M | -0.096 ± 0.11

Row | Variant | abundance fitness
49 | A18Q | 0.101 ± 0.092
50 | A18I | -0.536 ± 0.13
51 | A18N | -0.067 ± 0.15
52 | A18D | 0.045 ± 0.14
53 | A18T | -0.282 ± 0.097
54 | E46D | 0.027 ± 0.14
55 | E46G | -0.694 ± 0.055
56 | E46F | -1.03 ± 0.15
57 | K43T | 0.206 ± 0.076
58 | K43A | -0.014 ± 0.057
59 | K43I | -0.655 ± 0.2
60 | K43D | 0.11 ± 0.17
61 | K43C | 0.037 ± 0.12
62 | K43G | 0.001 ± 0.049
63 | K43M | -0.115 ± 0.081
64 | K43Y | -0.691 ± 0.25
65 | K43S | 0.122 ± 0.076
66 | F51W | -0.61 ± 0.33
67 | F51K | -0.371 ± 0.22
68 | D35Q | -0.823 ± 0.16
69 | D35W | -1.21 ± 0.12
70 | D35G | -0.742 ± 0.063
71 | D35N | -0.415 ± 0.15
72 | D35T | -0.714 ± 0.13

Row | Variant | abundance fitness
73 | D35V | -0.85 ± 0.079
74 | V33N | 0.152 ± 0.16
75 | V33Y | -0.269 ± 0.2
76 | V33P | -0.384 ± 0.12
77 | V33T | -0.042 ± 0.12
78 | V33Q | 0.053 ± 0.17
79 | E26D | -0.019 ± 0.12
80 | E26A | -0.31 ± 0.091
81 | E26T | -0.006 ± 0.13
82 | E26S | -0.229 ± 0.089
83 | E26H | -0.237 ± 0.22
84 | E26K | -0.169 ± 0.13
85 | E26I | -0.547 ± 0.15
86 | E26R | -0.719 ± 0.093
87 | Y54E | -0.363 ± 0.36
88 | R37M | -0.705 ± 0.094
89 | R37G | -0.577 ± 0.051
90 | R37Y | -1.25 ± 0.33
91 | R37E | -0.479 ± 0.082
92 | R37D | -0.74 ± 0.16
93 | L14P | -0.261 ± 0.1
94 | L14F | -0.683 ± 0.12
95 | L14C | -0.483 ± 0.11
96 | L14Q | -0.339 ± 0.12

Row | Variant | abundance fitness
97 | L14T | -0.547 ± 0.098
98 | L14V | -0.385 ± 0.068
99 | L14A | -0.452 ± 0.069
100 | A40P | -0.675 ± 0.23
101 | A40G | -0.206 ± 0.14
102 | A40R | -0.304 ± 0.13
103 | A40W | -0.588 ± 0.18
104 | A40M | 0.177 ± 0.33
105 | K55A | -0.304 ± 0.063
106 | K55V | -0.139 ± 0.061
107 | K55S | -0.25 ± 0.075
108 | K55E | -0.333 ± 0.08
109 | K55C | 0.12 ± 0.11
110 | A23Q | -0.528 ± 0.093
111 | A23M | -0.142 ± 0.096
112 | P42S | -0.131 ± 0.078
113 | P42Q | -0.316 ± 0.14
114 | P42A | -0.147 ± 0.07
115 | P42H | -0.477 ± 0.22
116 | P42V | -0.418 ± 0.071
117 | P42D | -0.023 ± 0.1
118 | K47M | -0.497 ± 0.11
119 | K47V | -0.644 ± 0.07
120 | K47P | -0.365 ± 0.093

Row | Variant | abundance fitness
121 | K47F | -0.304 ± 0.12
122 | K47N | -0.718 ± 0.24
123 | K47Q | -0.236 ± 0.12
124 | K47H | -0.427 ± 0.16
125 | Y38H | -0.392 ± 0.13
126 | Y38P | -0.423 ± 0.081
127 | Y38C | -0.368 ± 0.11
128 | Y38F | -0.02 ± 0.12
129 | Y38Q | -0.284 ± 0.1
130 | Y38G | -0.436 ± 0.059
131 | Y38V | -0.38 ± 0.062
132 | K48Y | -0.259 ± 0.17
133 | K48E | -0.344 ± 0.11
134 | K48T | -0.45 ± 0.1
135 | K48W | -0.532 ± 0.13
136 | K48F | -0.435 ± 0.21
137 | K48G | -0.664 ± 0.077
138 | K48I | -0.047 ± 0.18
139 | K48M | -0.01 ± 0.12
140 | Q27R | -0.342 ± 0.059
141 | Q27Y | -0.524 ± 0.15
142 | Q27I | -0.301 ± 0.2
143 | Q27T | 0.027 ± 0.11
144 | Q27G | -0.358 ± 0.059

Row | Variant | abundance fitness
145 | Q27H | -0.096 ± 0.24
146 | K5Y | -0.179 ± 0.14
147 | K5G | -0.187 ± 0.066
148 | K5N | -0.081 ± 0.17
149 | K5D | -0.012 ± 0.12
150 | K5I | -0.171 ± 0.19
151 | K5L | -0.177 ± 0.072
152 | A6L | -0.566 ± 0.077
153 | A6V | -0.331 ± 0.072
154 | A6Q | 0.009 ± 0.12
155 | A6G | -0.05 ± 0.055
156 | A6W | -0.948 ± 0.13
157 | A50M | -0.076 ± 0.097
158 | A50K | -0.765 ± 0.12
159 | A50P | -0.351 ± 0.12
160 | A50G | -0.462 ± 0.066
161 | A50Y | -0.895 ± 0.23
162 | A50I | -0.194 ± 0.15
163 | A28K | -0.524 ± 0.063
164 | A28R | -0.607 ± 0.05
165 | A28E | -0.431 ± 0.074
166 | A28W | -0.71 ± 0.068
167 | A28I | -0.595 ± 0.071

— the Human Domainome abundance scans (Beltran et al. 2025)
